# B1: RASSF9-to-5 variant of the RASSF9 RA domain, MBP fusion protein (domain or fragment, human, UniProt O75901 25-119, looked up)
# chain: EEKEIVVWVCQEEKLDCIKTLHTTSADVIQALLEEHEATFGEKRFLLGKPSDYCIIEKWRGSERVLPPLTRILKLWKAWGDEQPNMQFVLVKADA
# notes: RASSF9 RA domain (aa 25-119 of O75901, the limits of the wild-type construct) with five hotspot residues changed to those of RASSF5; source: gene synthesis (BioCat) in pMal-c5X-His vector; E. coli, purified
# Assays:
# [1] = molecular target: T1, HRAS, mGppNHp-bound (human, UniProt P01112-1 1-189); test: fluorescence polarisation; increasing concentrations of the RA/RB domain as MBP fusion protein (0.002-300 µM; or MBP alone) titrated to mGppNHp-bound RAS protein (1 µM); 30 mM Tris-HCl pH 7.4, 100 mM NaCl, 5 mM MgCl2, 3 mM DTT; Kd from a quadratic ligand-binding equation; conditions: both partners purified
# T1 construct: human HRAS; Loaded with mGppNHp, a fluorescent non-hydrolysable GTP analogue; That the RAS proteins were the pGEX (GST) constructs is surmised; also called HRAS1; p21HRAS
# [2] = molecular target: T2, RIT1, mGppNHp-bound (human, UniProt Q92963 1-219); test: as above; conditions: both partners purified
# T2 construct: human RIT1; Loaded with mGppNHp
# T2 sequence (Q92963 whole entry): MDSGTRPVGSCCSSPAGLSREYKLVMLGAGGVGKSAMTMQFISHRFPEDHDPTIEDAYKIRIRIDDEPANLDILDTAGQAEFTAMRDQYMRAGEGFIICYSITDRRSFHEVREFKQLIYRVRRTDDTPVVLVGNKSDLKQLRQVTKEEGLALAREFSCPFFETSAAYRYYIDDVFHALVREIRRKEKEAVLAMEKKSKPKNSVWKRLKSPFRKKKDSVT
binder,measurement,setting,value
B1,Kd,[1],40 µM
same,Kd,[2],150 µM
